# Source: the Human Domainome abundance scans (Beltran et al. 2025)
# ± gives the uncertainty stated by the source.
# Test: abundance fitness (aPCA) (normalised: wild type 0, dead -1); higher = more abundant; growth selection in yeast, the domain comes from the species named
# Settings: Saccharomyces cerevisiae (strain ATCC 204508 / S288c)
substance,measurement,value
"E3 ubiquitin-protein ligase RSP5 R340F, P39940",abundance fitness,-0.155 ± 0.16
"E3 ubiquitin-protein ligase RSP5 R340H, P39940",abundance fitness,-0.206 ± 0.22
"E3 ubiquitin-protein ligase RSP5 R340I, P39940",abundance fitness,0.002 ± 0.087
"E3 ubiquitin-protein ligase RSP5 R340K, P39940",abundance fitness,0.133 ± 0.081
"E3 ubiquitin-protein ligase RSP5 R340L, P39940",abundance fitness,0.078 ± 0.055
"E3 ubiquitin-protein ligase RSP5 R340M, P39940",abundance fitness,0.052 ± 0.055
"E3 ubiquitin-protein ligase RSP5 R340N, P39940",abundance fitness,-0.089 ± 0.08
"E3 ubiquitin-protein ligase RSP5 R340P, P39940",abundance fitness,-1 ± 0.063
"E3 ubiquitin-protein ligase RSP5 R340Q, P39940",abundance fitness,0.001 ± 0.054
"E3 ubiquitin-protein ligase RSP5 R340S, P39940",abundance fitness,-0.039 ± 0.057
"E3 ubiquitin-protein ligase RSP5 R340T, P39940",abundance fitness,-0.108 ± 0.062
"E3 ubiquitin-protein ligase RSP5 R340V, P39940",abundance fitness,0.022 ± 0.049
"E3 ubiquitin-protein ligase RSP5 R340W, P39940",abundance fitness,-0.088 ± 0.054
"E3 ubiquitin-protein ligase RSP5 R346A, P39940",abundance fitness,0.121 ± 0.05
"E3 ubiquitin-protein ligase RSP5 R346C, P39940",abundance fitness,0.095 ± 0.069
"E3 ubiquitin-protein ligase RSP5 R346D, P39940",abundance fitness,0.307 ± 0.057
"E3 ubiquitin-protein ligase RSP5 R346E, P39940",abundance fitness,0.414 ± 0.06
"E3 ubiquitin-protein ligase RSP5 R346F, P39940",abundance fitness,-0.042 ± 0.069
"E3 ubiquitin-protein ligase RSP5 R346G, P39940",abundance fitness,0.016 ± 0.044
"E3 ubiquitin-protein ligase RSP5 R346H, P39940",abundance fitness,0.289 ± 0.096
"E3 ubiquitin-protein ligase RSP5 R346K, P39940",abundance fitness,0.192 ± 0.064
"E3 ubiquitin-protein ligase RSP5 R346L, P39940",abundance fitness,0.078 ± 0.05
"E3 ubiquitin-protein ligase RSP5 R346M, P39940",abundance fitness,0.222 ± 0.067
"E3 ubiquitin-protein ligase RSP5 R346N, P39940",abundance fitness,0.185 ± 0.085
"E3 ubiquitin-protein ligase RSP5 R346P, P39940",abundance fitness,-0.165 ± 0.049
"E3 ubiquitin-protein ligase RSP5 R346Q, P39940",abundance fitness,0.165 ± 0.066
"E3 ubiquitin-protein ligase RSP5 R346S, P39940",abundance fitness,0.15 ± 0.05
"E3 ubiquitin-protein ligase RSP5 R346T, P39940",abundance fitness,0.094 ± 0.053
"E3 ubiquitin-protein ligase RSP5 R346V, P39940",abundance fitness,0.056 ± 0.049
"E3 ubiquitin-protein ligase RSP5 R346W, P39940",abundance fitness,-0.017 ± 0.073
"E3 ubiquitin-protein ligase RSP5 R346Y, P39940",abundance fitness,0.068 ± 0.079
"E3 ubiquitin-protein ligase RSP5 R355C, P39940",abundance fitness,-0.17 ± 0.052
"E3 ubiquitin-protein ligase RSP5 R355D, P39940",abundance fitness,-0.462 ± 0.088
"E3 ubiquitin-protein ligase RSP5 R355E, P39940",abundance fitness,-0.159 ± 0.053
"E3 ubiquitin-protein ligase RSP5 R355F, P39940",abundance fitness,-0.057 ± 0.2
"E3 ubiquitin-protein ligase RSP5 R355G, P39940",abundance fitness,-0.186 ± 0.041
"E3 ubiquitin-protein ligase RSP5 R355H, P39940",abundance fitness,-0.101 ± 0.063
"E3 ubiquitin-protein ligase RSP5 R355I, P39940",abundance fitness,-0.35 ± 0.086
"E3 ubiquitin-protein ligase RSP5 R355K, P39940",abundance fitness,0.033 ± 0.066
"E3 ubiquitin-protein ligase RSP5 R355L, P39940",abundance fitness,-0.192 ± 0.049
"E3 ubiquitin-protein ligase RSP5 R355M, P39940",abundance fitness,-0.065 ± 0.07
